Data taken from US20190195891A1, “DIAGNOSTIC AND THERAPEUTIC USES OF EXOSOMES” (Yeda Research and Development Co. Ltd., priority 2016, published 2019).
“Also recorded” adds a separate entry of the source.

What was measured:
[1] = test system: HT29 cells; test: Exosome generation by HT29 cells after triggering necroptosis (Nanoparticle Tracking Analysis, western blot); type: cell-based, human; conditions: HT-29 cells treated with TBZ
Experimental: (§1) Bafilomycin A1 from Santa Cruz Biotechnology was applied to the cells at 100 nM. Chloroquine was applied at 25 μM, 4-hydroxytamoxifen was applied at 1 μM, and ionomycin was applied at 1 μM, ultra pure LPS, applied at 1 μg/ml (all from Sigma). Human ECF from Biological industries, mouse EGF from ProSpec and human TNF from Ybdy were biotinylated using an EZ-Link biotinylation kit (Thermo Fisher Scientific) and then applied to the cells at 5 μg/ml or injected intravenously into mice at a dose of 10 μg/mouse. Bovine serum albumin (BSA), tagged with gold particles (BSA-gold, CMC Utrecht), was applied to the cells at an optical density of 2. […]
(§2) In all experiments aimed at assessing the generation of exosomes by cultured cells, the FBS supplementing the growth medium was pre-depleted of bovine exosomes by centrifugation at […] for 18 hours. […] The stimuli whose effect on exosome generation was to be assessed were applied for the indicated times towards the end of this 12 hour period. […] Size spectra and amounts of the particles in the exosome preparations were determined by Nanoparticle Tracking Analysis using the NanoSight NS300 device (Malvern Instruments) according to the manufacturer's instructions.
Cells and liver samples were extracted in RIPA and in 1% SDS, respectively. […] Band intensity was quantified using the ImageJ software.

[2] = test system: MEFs; test: Exosome generation by MEFs, ionomycin treatment; type: cell-based, mouse
Experimental: as §1, §2

[3] = test system: HepG2 cells; test: Exosome generation by HepG2 cells, ionomycin treatment; type: cell-based, human
Experimental: as §1, §2

[4] = test system: HepG2 cells; test: Fate of EGFR after EGF binding in control and MLKL knocked-down HepG2 cells (immunocytochemistry); type: cell-based, human; conditions: 2 hours after ligand binding; for cellular levels of the EGFR: HepG2 cells after EGF application; for difference in EGFR between cells expressing MLKL and cells deficient of it: control vs MLKL knocked-down HepG2 cells
Experimental: Bafilomycin A1 from Santa Cruz Biotechnology was applied to the cells at 100 nM. Chloroquine was applied at 25 μM, 4-hydroxytamoxifen was applied at 1 μM, and ionomycin was applied at 1 μM, ultra pure LPS, applied at 1 μg/ml (all from Sigma). Human ECF from Biological industries, mouse EGF from ProSpec and human TNF from Ybdy were biotinylated using an EZ-Link biotinylation kit (Thermo Fisher Scientific) and then applied to the cells at 5 μg/ml or injected intravenously into mice at a dose of 10 μg/mouse. Bovine serum albumin (BSA), tagged with gold particles (BSA-gold, CMC Utrecht), was applied to the cells at an optical density of 2. To trigger necroptosis, TNF (1000 units/ml) was applied together with the bivalentIAP (inhibitor of apoptosis protein) antagonist BV6 and the caspase inhibitor z-VAD-fmk, both from WuXu App Tec, at concentrations of 1 μM and 20 μM respectively. IL-1β ELISA kit was from eBiosicne.
Prior to ligand treatment the cells were incubated for 12 hours in serum-free medium. Biotinylated EGF and TNF were applied to the cells for 30 minutes on ice in CO2-independent medium (Thermo Fisher Scientific), and this was followed by rinsing and rther incubation without those ligands at 37° C. For western blot analysis, cellular proteins were extracted at the indicated times in RIPA buffer (20 mM Tris-HCl pH 7.5, 150 mM NaCl, 1 mM EDTA, 1 mM EGTA, 1% NP-40, 0.5% sodium deoxycholate, 0.1% sodium dodecyl sulfate (SDS), protease and phosphatase inhibitors). For immunofluorescence microscopy, cells were fixed in 4% paraformaldehyde (PFA) in PBS and then stained with fluorescence-conjugated antibodies.
Immunostaining was performed as described previously [Yoon S. et al., Cell death and differentiation (2016) 23, 253-260]. Briefly, cells fixed with 4% PFA in PBS were permeabilized by incubation in methanol at −20° C. for 10 minutes, followed by incubation in blocking buffer (20% normal goat serum (NGS), 2% BSA, 0.3 M glycine and 0.1% Tween-20 in PBS, pH 7.2). Following incubation with the indicated antibodies, images were obtained using an Olympus IX 81 confocal microscope (Olympus Imaging), with a UPLSAPO 60×1.35 NA oil objective and FluoView FV1000 software (Olympus Imaging). Images were processed using Imaris software from Bitplane.

[5] = test system: MLKL knocked-down HT-29 cells; conditions: cited from earlier work; for death in HT29 cells on inducible expression: Yoon et al. (2016); for induction of necroptosis/death by TBZ: as previously reported (Sun et al. 2012; Quarato et al. 2016)
[6] = test system: HepG2 cells; test: Cell death of HepG2 cells inducibly expressing MLKL mutants; type: cell-based, human; conditions: inducible expression in HepG2 cells
[7] = test system: MLKL knocked-down HT-29 cells; test: Yield of exosomes in MLKL knocked-down HT-29 cells inducibly expressing MLKL mutants; type: cell-based, human; conditions: inducible expression, compared to wild-type MLKL
Excerpt: The various mutants of MLKL were expressed inducibly in HT-29 cells in which the endogenous MLKL mRNA was constitutively knocked down. Expression was achieved by lentiviral infection with the GEV16/pF5x UAS system as described previously [Dunning C J et al. The EMBO Journal (2007) 26, 3227-3237, doi:10.1038/sj.emboj.7601748].
In all experiments aimed at assessing the generation of exosomes by cultured cells, the FBS supplementing the growth medium was pre-depleted of bovine exosomes by centrifugation at […] for 18 hours. Except where otherwise indicated, the exosomes were collected after 12 hours of incubation. The stimuli whose effect on exosome generation was to be assessed were applied for the indicated times towards the end of this 12 hour period. Unless otherwise indicated, TBZ was applied for 4 hours. For recovery of exosomes from the mice, mouse blood samples were collected in MiniCollect®TUBEs (Greiner Bio-One) and centrifuged at 3000 rpm for 15 minutes. Mouse plasma and cell-growth media were passed through 0.2 μm filters and centrifuged at […] for 90 minutes, after which the pellet was suspended in phosphate-buffered saline (PBS) and re-sedimented by centrifugation as above. Size spectra and amounts of the particles in the exosome preparations were determined by Nanoparticle Tracking Analysis using the NanoSight NS300 device (Malvern Instruments) according to the manufacturer's instructions.

[8] = test system: MLKL knocked-down HepG2 cells; test: Levels of EGF and EGFR in MLKL knocked-down HepG2 cells inducibly expressing MLKL mutants (western blot); type: cell-based, human; conditions: EGF applied 7 hours after induction

## CN1C(=O)C(Cc2c[nH]c3ccccc23)NC1=S (centres unmarked) [necrostatin-1]
[1]
  effect on enhancement of exosome generation by TBZ: block this enhancement; also recorded: reversal

## C[C@H](CCC(=O)O)C[C@H](C)C[C@H](C)C(=O)/C=C(\O)[C@H](C)C[C@H](C)C/C=C/[C@@H](C)[C@@H](O)[C@@H](C)[C@@H](O)C[C@@H]1CC[C@@](C)([C@H]2CC[C@@](C)([C@@H](C)O)O2)O1 [ionomycin]
[2]; MEFs
  generation of exosomes: enhanced generation of exosomes
[2]; MEFs deficient of MLKL
  generation of exosomes: no such enhancement
[3]; HepG2 cells
  generation of exosomes: enhanced generation of exosomes
[3]; HepG2 cells deficient of MLKL
  generation of exosomes: no such enhancement

## CCN(CC)CCCC(C)Nc1ccnc2cc(Cl)ccc12 (centres unmarked) [chloroquine]
[4]
  cellular levels of the EGFR: withhold the decrease
  difference in EGFR between cells expressing MLKL and cells deficient of it: obliterate the difference
[4]; listed as CQ
  difference in EGFR between cells expressing MLKL and cells deficient of it: equal accumulation of EGFR

## CO/C1=C\C(C)=C\[C@@H](C)[C@@H](O)[C@@H](C)C/C(C)=C/C=C/[C@H](OC)[C@@H]([C@@H](C)[C@@H](O)[C@H](C)[C@@]2(O)C[C@@H](O)[C@H](C)[C@@H](C(C)C)O2)OC1=O [bafilomycin A1]
[4]
  cellular levels of the EGFR: withhold the decrease
  difference in EGFR between cells expressing MLKL and cells deficient of it: obliterate the difference
[4]; listed as Baf A1
  difference in EGFR between cells expressing MLKL and cells deficient of it: equal accumulation of EGFR

B1: T357E/S358D: MLKL with phospho-mimetic mutations of the residues that are the targets of phosphorylation by RIPK3 (protein, UniProt Q8NB16 1-471, looked up, variant T357E S358D)
Mixed lineage kinase …: MENLKHIITLGQVIHKRCEEMKYCKKQCRRLGHRVLGLIKPLEMLQDQGKRSVPSEKLTTAMNRFKAALEEANGEIEKFSNRSNICRFLTASQDKILFKDVNRKLSDVWKELSLLLQVEQRMPVSPISQGASWAQEDQQDADEDRRAFQMLRRDNEKIEASLRRLEINMKEIKETLRQYLPPKCMQEIPQEQIKEIKKEQLSGSPWILLRENEVSTLYKGEYHRAPVAIKVFKKLQAGSIAIVRQTFNKEIKTMKKFESPNILRIFGICIDETVTPPQFSIVMEYCELGTLRELLDREKDLTLGKRMVLVLGAARGLYRLHHSEAPELHGKIRSSNFLVTQGYQVKLAGFELRKTQEDMSLGTTREKTDRVKSTAYLSPQELEDVFYQYDVKSEIYSFGIVLWEIATGDIPFQGCNSEKIRKLVAVKRQQEPLGEDCPSELREIIDECRAHDPSVRPSVDEILKKLSTFSK
[5]
  death in HT29 cells on inducible expression: triggers death
[6]
  death of HepG2 cells within the time of the test: no death
[7]
  generation of exosomes: levels higher than in cells expressing the wild type protein
[8]
  intracellular degradation of EGF and EGFR following uptake: facilitated

B2: T357A/S358A: MLKL with the RIPK3 targeted residues replaced with alanine (protein, UniProt Q8NB16 1-471, looked up, variant T357A S358A)
Mixed lineage kinase …: MENLKHIITLGQVIHKRCEEMKYCKKQCRRLGHRVLGLIKPLEMLQDQGKRSVPSEKLTTAMNRFKAALEEANGEIEKFSNRSNICRFLTASQDKILFKDVNRKLSDVWKELSLLLQVEQRMPVSPISQGASWAQEDQQDADEDRRAFQMLRRDNEKIEASLRRLEINMKEIKETLRQYLPPKCMQEIPQEQIKEIKKEQLSGSPWILLRENEVSTLYKGEYHRAPVAIKVFKKLQAGSIAIVRQTFNKEIKTMKKFESPNILRIFGICIDETVTPPQFSIVMEYCELGTLRELLDREKDLTLGKRMVLVLGAARGLYRLHHSEAPELHGKIRSSNFLVTQGYQVKLAGFELRKTQAAMSLGTTREKTDRVKSTAYLSPQELEDVFYQYDVKSEIYSFGIVLWEIATGDIPFQGCNSEKIRKLVAVKRQQEPLGEDCPSELREIIDECRAHDPSVRPSVDEILKKLSTFSK
[5]
  induction of necroptosis/death by TBZ: compromised
[7]
  generation of exosomes: compromised

B3: K230M/Q356A: MLKL with mutations within the ATP-binding pocket imposing the conformational change attained after phosphorylation (protein, UniProt Q8NB16 1-471, looked up, variant K230M Q356A)
Mixed lineage kinase …: MENLKHIITLGQVIHKRCEEMKYCKKQCRRLGHRVLGLIKPLEMLQDQGKRSVPSEKLTTAMNRFKAALEEANGEIEKFSNRSNICRFLTASQDKILFKDVNRKLSDVWKELSLLLQVEQRMPVSPISQGASWAQEDQQDADEDRRAFQMLRRDNEKIEASLRRLEINMKEIKETLRQYLPPKCMQEIPQEQIKEIKKEQLSGSPWILLRENEVSTLYKGEYHRAPVAIMVFKKLQAGSIAIVRQTFNKEIKTMKKFESPNILRIFGICIDETVTPPQFSIVMEYCELGTLRELLDREKDLTLGKRMVLVLGAARGLYRLHHSEAPELHGKIRSSNFLVTQGYQVKLAGFELRKTATSMSLGTTREKTDRVKSTAYLSPQELEDVFYQYDVKSEIYSFGIVLWEIATGDIPFQGCNSEKIRKLVAVKRQQEPLGEDCPSELREIIDECRAHDPSVRPSVDEILKKLSTFSK
[5]
  death in HT29 cells on inducible expression: triggers death
[6]
  death of HepG2 cells within the time of the test: about 1%
[7]
  generation of exosomes: levels higher than in cells expressing the wild type protein
[8]
  intracellular degradation of EGF and EGFR following uptake: facilitated

B4: 5A: MLKL in which Lys5, Lys16 Arg17, and Lys50 Arg51 were replaced with alanine (protein, UniProt Q8NB16 1-471, looked up, variant K5A K16A R17A K50A R51A)
Mixed lineage kinase …: MENLAHIITLGQVIHAACEEMKYCKKQCRRLGHRVLGLIKPLEMLQDQGAASVPSEKLTTAMNRFKAALEEANGEIEKFSNRSNICRFLTASQDKILFKDVNRKLSDVWKELSLLLQVEQRMPVSPISQGASWAQEDQQDADEDRRAFQMLRRDNEKIEASLRRLEINMKEIKETLRQYLPPKCMQEIPQEQIKEIKKEQLSGSPWILLRENEVSTLYKGEYHRAPVAIKVFKKLQAGSIAIVRQTFNKEIKTMKKFESPNILRIFGICIDETVTPPQFSIVMEYCELGTLRELLDREKDLTLGKRMVLVLGAARGLYRLHHSEAPELHGKIRSSNFLVTQGYQVKLAGFELRKTQTSMSLGTTREKTDRVKSTAYLSPQELEDVFYQYDVKSEIYSFGIVLWEIATGDIPFQGCNSEKIRKLVAVKRQQEPLGEDCPSELREIIDECRAHDPSVRPSVDEILKKLSTFSK
[5]
  induction of necroptosis/death by TBZ: arrest death induction
[7]
  generation of exosomes: failed to generate exosomes
